This is an account of results in patent US20260265348A1.

Usually Kd stands for the constant that tells how readily two partners part at equilibrium. What is called koff is the rate constant with which the complex falls apart. A word on the kon: it is the second-order rate constant of association.

The assay addresses recombinant HSV-2G glycoprotein B (gB) ectodomain (aa 22-724), trimeric (HSV-2 strain G). The assay is described as follows: bio-layer interferometry (Octet), dilution series on HSV-2 recombinant gB. In general terms: BLI is a label-free optical method that tracks binding on a fibre tip over time.

B1: HDIT102(H4), fully human IgG1 anti-HSV gB antibody (antibody, V domains shown)
VH: EVQLVQSGAEVKTPGASVRVSCKASGHTFRTFDINWVRQAAGQGLEWMGWMSPNSGNTGYARQFQGRVTMTRNISANTAYMELRGLRFDDTAVYYCARGPGSTGTTGSMDVWGQGTTVTVSS
VL: QAGLTQPPSVSVAPGKTARISCGGNNIGSKSVHWYQQKPGQAPVLVIYYDSDRPSGIPERFSGSNSGNTATLTISRVEAGDEADYYCQVWDSGSVVFGGGTKLTVLG
As to B1, the dissociation constant (Kd) is below 1 pM, the koff was below 1e-07 s⁻¹ and the kon was 727000 M⁻¹ s⁻¹.
